# Test results: the RNAGym collection of RNA variant scans (doi:10.1073/pnas.2313332121)
# B1: TPR t1 (parent)
# chain: GACCAAUCUGCCCUCAGAGCUCGAGAACAUCUUCGGAUGCAGAGGAGGCAGGCUUCGGUGGCGCGAUAGCGCCAACGUCCUCAACCUCCAAUGCAUCCCACCACAUGAUGAUGCCUGAAGAGCCUUGGUUUUUUG
# Variants of: B1
# Test: polymerase ribozyme fitness, log enrichment relative to wild type (log ratio); higher = more active; in vitro selection for triplet polymerase activity
# Summary of the method: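 In triplicate, a single round of in vitro selection was run on each mutant library, PCR-built and transcribed, covering one subunit of a heterodimeric triplet polymerase ribozyme. Frozen incubation at −7 °C followed annealing with a biotinylated primer, partner subunit and triplets, and extended constructs were then gel-excised, streptavidin-captured and taken through RT-PCR. Fitness is the logarithm of genotype enrichment over wild-type enrichment, from inverse-variance-weighted replicate averages of Illumina-sequenced inputs and outputs. […] only genotypes with ≥10 input reads and ≥1 read per output were kept.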
row,Variant,polymerase ribozyme fitness (log ratio)
1,GACCAAUCUGCCCUCAGAGCUCGAGAACAUCUUCGGAUGCAGAGGAGGCAGGCUUCGGUGGCGCGAUAGCGUCAACGUCCUCAACCUCCAAUGCAUCCCACCACAUGAUGAUGCCUGAAAAGCCUUGGUUUUUUG [C72U G120A],0.502
2,GACCAAUCUGCCCUCAGAGCUCGAGAACAUCUUCGGAUGCAGAGGAGGCAGGCUUCGGUGGCGCGAUAGCGUCAACGUCCUCAACCUCCAAUGCAUCCCACCACAUGAUGAUGCCUGAACAGCCUUGGUUUUUUG [C72U G120C],0.644
3,GACCAAUCUGCCCUCAGAGCUCGAGAACAUCUUCGGAUGCAGAGGAGGCAGGCUUCGGUGGCGCGAUAGCGUCAACGUCCUCAACCUCCAAUGCAUCCCAGCACAUGAUGAUGCCUUAAGAGCCUUGGUUUUUUG [C72U C101G G117U],-3.6
4,GACCAAUCUGCCCUCAGAGCUCGAGAACAUCUUCGGAUGCAGAGGAGGCAGGCUUCGGUGGCGCGAUAGCGUCAACGUCCUCAACCUCCAAUGCAUCCCACCACAUGAUGAUGCCUGAAGAGCCUUGGGUUUUUG [C72U U129G],-1.46
5,GACCAAUCUGCCCUCAGAGCUCGAGAACAUCUUCGGAUGCAGAGGAGGCAGGCUUCGGUGGCGCGAUAGCGUCAACGUCCUCAACCUCCAAUGCAUCCCACCAUAUGAUGAUGCCUGAAGAGCCUUGGUUUUUUG [C72U C104U],-0.541
6,GACCAAUCUGCCCUCAGAGCUCGAGAACAUCUUCGGAUGCAGAGGAGGCAGGCUUCGGUGGCGCGAUAGCGUCAACGUCCUCAACCUCCAAAGCUUCCCACCACAUGAUGAUGCCUGAAGAGCCUUGGUUUUUUG [C72U U92A A95U],-4.07
7,GACCAAUCUGCCCUCAGAGCUCGAGAACAUCUUCGGAUGCAGAGGAGGCAGGCUUCGGUGGCGCGAUAGCGCAAACGUCCUCAUCCUACAAUGCAUCCCACCACAUGAUAAUGCCUGAAGAGACUCGGUUUUUUG [C73A A84U C88A G110A C123A U126C],-4.76
8,GACCAAUCUGCCCUCAGAGCUCGAGAACAUCUUCGGAUGCAGAGGAGGCAGGCUUCGGUGGCGCGAUAGCGUCAACGUCCUCAACCUCCAAUGCAUCCCACCACAUGAUUAUGCCUGAAGAGCCUUGGUUUUUUG [C72U G110U],-1.17
9,GACCAAUCUGCCCUCAGAGCUCGAGAACAUCUUCGGAUGCAGAGGAGGCAGGCUUCGGUGGCGCGAUAGCGUCAACGUCCUCAACCUCCAAUGCAUCCCACCACAUGAUAAUGCCUGAAGAGCCUUGGUUUUUUG [C72U G110A],-1.45
10,GACCAAUCUGCCCUCAGAGCUCGAGAACAUCUUCGGAUGCAGAGGAGGCAGGCUUCGGUGGCGCGAUAGCGUCAACGUCCUCAACCUCCAAUGCAUCCCACCACAUGAUGAUGCCUGAAAAGCUUUGGUUUUUUG [C72U G120A C124U],1.83
11,GACCAAUCUGCCCUCAGAGCUCGAGAACAUCUUCGGAUGCAGAGGAGGCAGGCUUCGGUGGCGCGAUAGCGUCAACUUCCUCAACCUCCAAUGCAUCCCACCACAUGAUGAUGCCUGAAGAGCCUUGGUUUUUUG [C72U G77U],-0.309
12,GACCAAUCUGCCCUCAGAGCUCGAGAACAUCUUCGGAUGCAGAGGAGGCAGGCUUCGGUGGCGCGAUAGCGCAAACGUCCUCAACCUCCAAUGCAUCCCACCACAUGAUGAUGCCUGAGGAGCCUUGGUUUUUUG [C73A A119G],0.838
13,GACCAAUCUGCCCUCAGAGCUCGAGAACAUCUUCGGAUGCAGAGGAGGCAGGCUUCGGUGGCGCGAUAGCGUCAACGUCCUCAACCUCCAAUGCAUCCCACCACAUGAAGAUGCCUGAAGAGCCUUGGUUUUUUG [C72U U109A],-5.61
14,GACCAAUCUGCCCUCAGAGCUCGAGAACAUCUUCGGAUGCAGAGGAGGCAGGCUUCGGUGGCGCGAUAGCGCACACGUCCUCAACCUCCAAUGCAUCCCACCACAUGAUGAUGCCUGAAGAGCCUUGGUUUUUUG [C73A A74C],-0.174
15,GACCAAUCUGCCCUCAGAGCUCGAGAACAUCUUCGGAUGCAGAGGAGGCAGGCUUCGGUGGCGCGAUAGCGUCAACGUCCUCAACCUCCAAUGCAUCCCACCACAUGAUUAUGCCUGAAGAGCCAUGGUUUUUUG [C72U G110U U125A],-2.31
16,GACCAAUCUGCCCUCAGAGCUCGAGAACAUCUUCGGAUGCAGAGGAGGCAGGCUUCGGUGGCGCGAUAGCGUCAACGUCCUCAACCUCCAAUGCAUCCCACCACAUGAUGAUGUCUGAAGAGUCUUGGUAUUUUA [C72U C114U C123U U130A G135A],-2.43
17,GACCAAUCUGCCCUCAGAGCUCGAGAACAUCUUCGGAUGCAGAGGAGGCAGGCUUCGGUGGCGCGAUAGCGUCAACGUCCUCAACCGCUAAUGCAUCCCACCACAUGAUGAUGCCUGAAGAGACUUGGUUUUUUG [C72U U87G C89U C123A],0.156
18,GACCAAUCUGCCCUCAGAGCUCGAGAACAUCUUCGGAUGCAGAGGAGGCAGGCUUCGGUGGCGCGAUAGCGUCAACGUCCGCAAACUCCAAUGCAUCCCACCACAUGAUGAUGCCUGAAGAGCCUUGGUUUUUUG [C72U U81G C85A],-3.96
19,GACCAAUCUGCCCUCAGAGCUCGAGAACAUCUUCGGAUGCAGAGGAGGCAGGCUUCGGUGGCGCGAUAGCGUCAACGUCCUCAACCUCCAAUGCAUCCCACCACAUGAUGAUGCCUGAAGAGCCUUGUUUUUUUG [C72U G128U],-1.48
20,GACCAAUCUGCCCUCAGAGCUCGAGAACAUCUUCGGAUGCAGAGGAGGCAGGCUUCGGUGGCGCGAUAGCGUCAACGUCCUCAACCACCAAUGCAUCCCACCACAUGAUGAUGCCUGAAGAGCCUUGGUUUUUUG [C72U U87A],-0.188
21,GACCAAUCUGCCCUCAGAGCUCGAGAACAUCUUCGGAUGCAGAGGAGGCAGGCUUCGGUGGCGCGAUAGCGUCAACGUCCUCAACCUCCAAUGCAUCCCACCACAUGAUGAUGCCUGAAGAGCCUUGGUUUCUUG [C72U U132C],-0.841

row,Variant,polymerase ribozyme fitness (log ratio)
1,GACCAAUCUGCCCUCAGAGCUCGAGAACAUCUUCGGAUGCAGAGGAGGCAGGCUUCGGUGGCGCGAUAGCGCAAACGUCCUCAAUCUCCAAUGCAUCCCACCACAUGAUGAUGCCGGAAGAGCCUUGGUUUUUUG [C73A C85U U116G],-2.18
2,GACCAAUCUGCCCUCAGAGCUCGAGAACAUCUUCGGAUGCAGAGGAGGCAGGCUUCGGUGGCGCGAUAGCGUCAACGUCCUCAACCUCCAAUGCAUCCCACCACAUGAUGAUGUCUGAAGAGCCUUGGUUUUUUG [C72U C114U],-1.89
3,GACCAAUCUGCCCUCAGAGCUCGAGAACAUCUUCGGAUGCAGAGGAGGCAGGCUUCGGUGGCGCGAUAGCGUCAACGCCCUCAACGUCCAAUGCAUCCCACCACAUGAUGAUGCUUGAAGAGCCUUGGUUUUUUG [C72U U78C C86G C115U],-1.64
4,GACCAAUCUGCCCUCAGAGCUCGAGAACAUCUUCGGAUGCAGAGGAGGCAGGCUUCGGUGGCGCGAUAGCGUCAACGUCCUCAACCUCCAAUGCAUCCCACCACAUGAUGAUGCCUGAAGAGCCUCGGUUUUUUG [C72U U126C],-0.816
5,GACCAAUCUGCCCUCAGAGCUCGAGAACAUCUUCGGAUGCAGAGGAGGCAGGCUUCGGUGGCGCGAUAGCGUCAACGUCCUCAACCUCCAAUGCAUCCCACAACAUGAUGAUGCCUGAAUAGCCUUGGUGUUUUG [C72U C102A G120U U130G],-2.46
6,GACCAAUCUGCCCUCAGAGCUCGAGAACAUCUUCGGAUGCAGAGGAGGCAGGCUUCGGUGGCGCGAUAGCGUCAACGUCCUCAACCUCCAAUGCAUCCCACCACAUGAUGAUGCCUGAAGAGCCUUGGUUUUGUG [C72U U133G],-0.942
7,GACCAAUCUGCCCUCAGAGCUCGAGAACAUCUUCGGAUGCAGAGGAGGCAGGCUUCGGUGGCGCGAUAGCGUCAACGUCCUCAACCUCCAAUGCAGCCCACCACAUGAUGAUGCCUGAAGAGCCUCGGUUUUUUG [C72U U96G U126C],-1.75
8,GACCAAUCUGCCCUCAGAGCUCGAGAACAUCUUCGGAUGCAGAGGAGGCAGGCUUCGGUGGCGCGAUAGCGUCAACGUCCUCAACCUCCAAUGCAUCCCACCACAUGAUGAUGCUUGAAGAGCCUUGGGUUUUUG [C72U C115U U129G],-2.18
9,GACCAAUCUGCCCUCAGAGCUCGAGAACAUCUUCGGAUGCAGAGGAGGCAGGCUUCGGUGGCGCGAUAGCGCAAACGUCCUCAACCUCCAGUGCAUCCCACCACAUGAUGAUGCCUGAAGAGCCUUGGUUUUUUG [C73A A91G],-0.975
10,GACCAAUCUGCCCUCAGAGCUCGAGAACAUCUUCGGAUGCAGAGGAGGCAGGCUUCGGUGGCGCGAUAGCGCAAACGUCCUCAACCUCCAUUGCAUCCCACCACAUGAUGAUGCCUGAAGAGCCUUGGUUUUUUG [C73A A91U],-0.926
11,GACCAAUCUGCCCUCAGAGCUCGAGAACAUCUUCGGAUGCAGAGGAGGCAGGCUUCGGUGGCGCGAUAGCGCAAACGUCCUUAACCUCCAAUGCAUCCCACCACAUGAUGAUGCCUGAAGAGCCUUGGUUUUUUG [C73A C82U],-0.0503
12,GACCAAUCUGCCCUCAGAGCUCGAGAACAUCUUCGGAUGCAGAGGAGGCAGGCUUCGGUGGCGCGAUAGCGCAAACGUCCUCAACCUCCUAUGCAUCCCACCACGUGAUGAUCCCUGAAGACCCUUGGUUUUUUG [C73A A90U A105G G113C G122C],-3.65
13,GACCAAUCUGCCCUCAGAGCUCGAGAACAUCUUCGGAUGCAGAGGAGGCAGGCUUCGGUGGCGCGAUAGCGCAAACGUCCUCAACUUCCAAUGCAUCCCACCACAUGAUGAUGCCUGAAGAGCCUUGGUUUUUUG [C73A C86U],1.13
14,GACCAAUCUGCCCUCAGAGCUCGAGAACAUCUUCGGAUGCAGAGGAGGCAGGCUUCGGUGGCGCGAUAGCGUCAACGUCCUCAACCUCCAAUGCAUCCCACCACAUGAUGAUGCCUGAACAGCCUUGGUUGUUUG [C72U G120C U131G],0.516
15,GACCAAUCUGCCCUCAGAGCUCGAGAACAUCUUCGGAUGCAGAGGAGGCAGGCUUCGGUGGCGCGAUAGCGUCAACGGCCUCAACCUCCAAUGCAUCCCACCACAUGACGAUGCCUGAAGAGCCUUGGUUUUUUG [C72U U78G U109C],-5.41
16,GACCAAUCUGCCCUCAGAGCUCGAGAACAUCUUCGGAUGCAGAGGAGGCAGGCUUCGGUGGCGCGAUAGCGUCAACGUCCUCAACCUCCAAUGCAUCCCACCACAUGAUGAUGCCUGAAGAGCCUUGGUUUUUUC [C72U G135C],-0.00236
17,GACCAAUCUGCCCUCAGAGCUCGAGAACAUCUUCGGAUGCAGAGGAGGCAGGCUUCGGUGGCGCGAUAGCGUCAACGUCCUCAACCUCCAAUACAUCCCACUACAUGAUGAUGCCUAAAGAGCCUUGGUUUUUUG [C72U G93A C102U G117A],-4.25
18,GACCAAUCUGCCCUCAGAGCUCGAGAACAUCUUCGGAUGCAGAGGAGGCAGGCUUCGGUGGCGCGAUAGCGCAAACGUCCUCAACCUCCAUUGUAUCCCACCACAUGAUGAUGCCUGAAGAGCCUUGGUUUUUUG [C73A A91U C94U],-2.58
19,GACCAAUCUGCCCUCAGAGCUCGAGAACAUCUUCGGAUGCAGAGGAGGCAGGCUUCGGUGGCGCGAUAGCGUCAACGUCCUCAACCUCCAAUGCAACCCACCACAUGAUGAUGCCUGAAGAGCCUUGGUUUUUUG [C72U U96A],-1.65
20,GACCAAUCUGCCCUCAGAGCUCGAGAACAUCUUCGGAUGCAGAGGAGGCAGGCUUCGGUGGCGCGAUAGCGUCAACGUCCUCAACCUCCAAUGCAUCCCACGACAUGAUGAUGCCUGAAGAGCCUUGGUUUUUUG [C72U C102G],-5.51
21,GACCAAUCUGCCCUCAGAGCUCGAGAACAUCUUCGGAUGCAGAGGAGGCAGGCUUCGGUGGCGCGAUAGCGUCAACGUCCUCAACCUCCAAUGCAUCCCACAACAUGAUGAUGCCUGAAGAGCCUUGGUUUUUUG [C72U C102A],-1.81
